# Data reported in US20140206847A1 (PANASONIC, published 2014).
# B1: First mutant scFv antibody fragment (scFv)
# scFv: DVVLTQSPLTLSVTIGQPASISCKSSQSLLDSDGKTYLNWLLQRPGQSPKRLIYLVSKLDSGVPDRFTGSGSGTDFTLKISRVEAEDLGVYYCWQGTHFPLTFGAGTKLEIKRGGGGSGGGGSGGGGSQLQLQQSGAELVRSGASVKLSCTASGFNIKDYYMNWVKQRPEQGLEWIGWIDPANGDTAYAPRFQVKADMTADKDSDTAYLQLSSLTSEDTAVYYCNADLPMDQWGQGTSVTVSSAAALESFNRNEC
# notes: also called first mutant scFv antibody fragment 51; mutant first scFv antibody fragment
# Biological target: T1, Troponin I derived from human myocardium (human, UniProt P19429 2-210)
# T1 construct: Bought protein, fixed on a CM5 chip at approximately 500 RU; also called Troponin I (purchased from Funakoshi)
# Test: SPR, Biacore T100; troponin I fixed on CM5 chip, measured similarly to the mutant protein; column head 'Association Rate Ka(M^-1)'
# Experimental: Using an intermolecular interaction analyzer Biacore T100 (purchased from GE health care company), the association rate of the mutant protein was measured in accordance with the manual attached to the intermolecular interaction analyzer Biacore T100.
# More particularly, Troponin I (purchased from Funakoshi) derived from human myocardium having approximately 500 RU (Resonance Unit) was fixed on a CM5 chip (purchased from GE health care company). This CM5 chip was set in the Biacore T100. Then, aqueous solutions (concentration: 100 nM, 50 nM, 25 nM, 12.5 nM, and 6.25 nM, volume: 150 microliters) containing the purified mutant protein was flowed through the Biacore T100 to measure the association rate of the mutant protein.
# T1 sequence (P19429 2-210 limits assumed): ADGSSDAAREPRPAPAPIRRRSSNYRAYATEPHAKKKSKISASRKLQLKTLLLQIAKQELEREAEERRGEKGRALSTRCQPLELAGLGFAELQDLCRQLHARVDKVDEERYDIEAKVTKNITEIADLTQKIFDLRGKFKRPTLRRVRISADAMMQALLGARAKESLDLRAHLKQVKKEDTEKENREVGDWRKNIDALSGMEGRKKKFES
binder,measurement,value
B1,Ka,5.11e+09 M⁻¹
